Assay results reported in patent publication US20240424125A1 (Zymeworks, published 2024).

Assays:
[1] = molecular target: T1, recombinant His-tagged human FRα (ACROBiosystems) (human, UniProt P15328 25-233); assay: BLI (Octet RED96): antibody on anti-human IgG Fc capture biosensor, His-tagged hFRα as analyte, 1:1 global fit, mean of n=2
T1 construct: also called hFRα; hFRα antigen; not shown: His tag
Procedure: (§1) The assay buffer used was KB buffer (kinetics buffer, composed of PBS pH 7.4, 0.1% BSA, 0.02% Tween 20, 0.05% sodium azide) supplemented with 0.06% Tween 20 and in some instances also with 1% BSA. The experiment was conducted at 30° C. with a shake speed of 1000 rpm.
(§2) Data analysis was performed using Data Analysis Software 9.0 (ForteBio, Fremont CA). The reference-subtracted binding curves were globally fitted to the 1:1 interaction model to generate the binding kinetic parameters kₒₙ, koff, and the dissociation constant KD.

[2] = molecular target: T1, recombinant His-tagged human FRα …; assay: BLI (Octet RED96); end of the range tied to v30394 by Table 8.1
Procedure: as §1, §2

human FRα on cells [3] = molecular target: T2, human FRα on cells (human, UniProt P15328 25-234); assay: apparent Kd, flow cytometry on JEG-3 cells (endogenous FRα), as in Example 16
T2 construct: Transiently expressed on HEK293-6e, CHO-S or HEK293 microarray cells, or endogenous on JEG-3, HEC-1-A, IGROV-1, OVCAR-3, H2110, KB-HeLa and T-47D cells; also called human folate receptor alpha; FOLR1
Procedure: (§3) Briefly, cells were seeded at 50,000 cells/well in V-bottom 96-well plates and treated with antibody for 24 hours at 4° C. to prevent internalization. […] Following incubation and washing, fluorescence was detected by flow cytometry on a BD LSRFortessa™ Cell Analyzer (BD Biosciences, Franklin Lake, NJ) with 1,000 minimum events collected per well. AF647/APC-A GeoMean (fluorescence signal geometric mean, proportional to anti-Human AF647 binding) in live cell population was plotted using GraphPad Prism Version 9 (GraphPad Software, San Diego, CA).

[4] = molecular target: T1, recombinant His-tagged human FRα …; assay: BLI (Octet RED96) as in Example 8: antibody captured, His-tagged hFRα as analyte, mean of n=2
Procedure: as §1, §2

human FRα on cells [5] = molecular target: T2, human FRα on cells; assay: apparent Kd, flow cytometry on IGROV-1 cells (endogenous FRα), as in Example 16
Procedure: as §3

FCGR2A = molecular target: T3, FCGR2A (human, UniProt P12318); assay: Retrogenix cell microarray, fixed cell confirmation screen, HEK293 cells overexpressing the protein, v36675 at 20 µg/mL, detection with AF647 anti-hIgG H+L; the text calls FcgR signals Fc-domain mediated
T3 construct: overexpressed on reverse-transfected HEK293 cells, fixed; One of the FcgR receptors that the text names only as a group
T3 sequence (receptor chain, looked up): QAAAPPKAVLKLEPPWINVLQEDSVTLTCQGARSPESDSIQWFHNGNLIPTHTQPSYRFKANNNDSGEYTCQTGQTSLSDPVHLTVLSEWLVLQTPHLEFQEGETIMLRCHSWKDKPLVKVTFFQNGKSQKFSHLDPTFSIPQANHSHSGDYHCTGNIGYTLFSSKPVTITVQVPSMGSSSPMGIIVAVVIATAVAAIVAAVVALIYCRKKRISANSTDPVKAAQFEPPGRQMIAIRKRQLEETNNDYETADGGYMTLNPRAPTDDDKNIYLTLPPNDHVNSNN
Procedure: (§4) Fluorescent images were analysed and quantitated (for transfection) using ImageQuant™ software (Version 8.2; GE Healthcare, Chicago, IL). A protein hit was defined as a duplicate spot showing an increased signal compared to background levels and was identified by visual inspection using the images gridded on the ImageQuant™ software. Hits were classified as strong, medium, weak or very weak by visual inspection by two experienced scientists based on the intensity of the duplicate spots.

FCGR1A = molecular target: T4, FCGR1A (human, UniProt P12314); assay: as above
T4 construct: overexpressed on reverse-transfected HEK293 cells, fixed; One of the FcgR receptors that the text names only as a group
Procedure: as §4

[6] = molecular target: T1, recombinant His-tagged human FRα …; assay: BLI (Octet RED96); end of the range tied to v31426 by Table 8.1
Procedure: as §1, §2

[7] = molecular target: T1, recombinant His-tagged human FRα …; assay: BLI (Octet RED96); end of the range tied to v35305 by Table 20.1
Procedure: as §1, §2

[8] = molecular target: T1, recombinant His-tagged human FRα …; assay: BLI (Octet RED96); end of the range tied to v35348 by Table 20.1
Procedure: as §1, §2

human FRα on cells [9] = molecular target: T2, human FRα on cells; assay: apparent Kd, flow cytometry, CHO-S cells transiently expressing human FRα, 24 h at 4°C
Procedure: Briefly, CHO-S cells were transfected for −24 hours to transiently express human or cynomolgus monkey FRα, 1 ug DNA per 1 million cells. Following transfection, cells were seeded at 50,000 cells/well in V-bottom 96-well plates and treated with antibody for 24 hours at 4° C. to prevent internalization. […] Following incubation and washing, fluorescence was detected by flow cytometry on a BD LSRFortessa™ Cell Analyzer (BD Biosciences, Franklin Lake, NJ).

T1 sequence (P15328 25-233 limits assumed): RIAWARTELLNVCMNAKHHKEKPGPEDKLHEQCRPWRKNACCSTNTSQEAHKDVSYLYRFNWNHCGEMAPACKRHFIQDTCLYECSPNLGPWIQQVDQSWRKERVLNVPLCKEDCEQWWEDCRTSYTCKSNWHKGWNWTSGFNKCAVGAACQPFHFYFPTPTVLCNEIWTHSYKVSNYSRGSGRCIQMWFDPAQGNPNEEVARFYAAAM
T2 sequence (P15328 25-234 limits assumed): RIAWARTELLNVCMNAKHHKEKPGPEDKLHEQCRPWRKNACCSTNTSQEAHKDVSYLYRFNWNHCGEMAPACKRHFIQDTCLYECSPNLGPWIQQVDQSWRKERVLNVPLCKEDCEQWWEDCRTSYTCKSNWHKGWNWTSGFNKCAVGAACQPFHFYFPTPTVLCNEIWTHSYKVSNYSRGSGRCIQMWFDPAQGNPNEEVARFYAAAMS
T4 sequence (P12314 16-374 limits assumed): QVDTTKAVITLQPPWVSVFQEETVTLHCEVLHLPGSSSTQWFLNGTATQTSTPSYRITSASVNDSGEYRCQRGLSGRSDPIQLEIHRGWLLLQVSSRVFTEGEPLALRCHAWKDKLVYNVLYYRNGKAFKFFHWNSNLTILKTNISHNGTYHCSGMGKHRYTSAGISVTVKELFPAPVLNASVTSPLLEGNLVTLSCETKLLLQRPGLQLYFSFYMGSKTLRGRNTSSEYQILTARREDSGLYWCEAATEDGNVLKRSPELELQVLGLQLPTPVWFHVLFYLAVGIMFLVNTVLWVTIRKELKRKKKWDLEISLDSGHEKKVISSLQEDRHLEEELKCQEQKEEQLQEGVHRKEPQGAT

B1: v30394 (antibody, human IgG1, kappa)
heavy 1: EVQLLESGGGLVQPGGSLRLSCAVSGFSLSSYGVSWVRQAPGKGLEWIGAVNSGGSAYYADWAKGRSTISRDNSKNTVYLQMNSLRAEDTAVYYCARSGSGYPMDYLAIWGQGTLVTVSSASTKGPSVFPLAPSSKSTSGGTAALGCLVKDYFPEPVTVSWNSGALTSGVHTFPAVLQSSGLYSLSSVVTVPSSSLGTQTYICNVNHKPSNTKVDKKVEPKSCDKTHTCPPCPAPELLGGPSVFLFPPKPKDTLMISRTPEVTCVVVDVSHEDPEVKFNWYVDGVEVHNAKTKPREEQYNSTYRVVSVLTVLHQDWLNGKEYKCKVSNKALPAPIEKTISKAKGQPREPQVYVYPPSRDELTKNQVSLTCLVKGFYPSDIAVEWESNGQPENNYKTTPPVLDSDGSFALVSKLTVDKSRWQQGNVFSCSVMHEALHNHYTQKSLSLSPG
heavy 2: not shown
light: DYQMTQSPSSVSASVGDRVTITCRASQSIGDWLAWYQQKPGKAPKLLIYEASTLASGVPSRFSGSGSGTDFTLTISSVQPEDAATYYCQQGYGRSNVDNIFGGGTKVEVKRTVAAPSVFIFPPSDEQLKSGTASVVCLLNNFYPREAKVQWKVDNALQSGNSQESVTEQDSKDSTYSLSSTLTLSKADYEKHKVYACEVTHQGLSSPVTKSFNRGEC
notes: Humanized IgG1/kappa, HetFc; also called 4H4L
In the case of B1, the Kd [1] is reported as 63 nM and the “fold reduced affinity compared to the parental chimera antibody v23924” value [2] is reported as 2 fold.

B2: v35356 (antibody, human IgG1, kappa, V domains shown)
VH: EVQLLESGGGLVQPGGSLRLSCAVSGFSLSSYGVSWVRQAPGKGLEWIGAVNSGGSAYYADSFKGRSTISRDNSKNTVYLQMNSLRAEDTAVYYCARSGSGYPMDYHPIWGQGTLVTVSS
VL: DYQMTQSPSSVSASVGDRVTITCRASQSIGDWLAWYQQKPGKAPKLLIYEASTLASGVPSRFSGSGSGTDFTLTISSVQPEDAATYYCQQGYGRWHILNIFGGGTKVEVKR
In the case of B2, the Kd (human FRα on cells [3]) is reported as 0.44 nM, the Kd [4] is reported as 4.98 nM and the Kd (human FRα on cells [5]) is reported as 1.31 nM.

B3: v36675 (antibody, human IgG1, kappa)
heavy: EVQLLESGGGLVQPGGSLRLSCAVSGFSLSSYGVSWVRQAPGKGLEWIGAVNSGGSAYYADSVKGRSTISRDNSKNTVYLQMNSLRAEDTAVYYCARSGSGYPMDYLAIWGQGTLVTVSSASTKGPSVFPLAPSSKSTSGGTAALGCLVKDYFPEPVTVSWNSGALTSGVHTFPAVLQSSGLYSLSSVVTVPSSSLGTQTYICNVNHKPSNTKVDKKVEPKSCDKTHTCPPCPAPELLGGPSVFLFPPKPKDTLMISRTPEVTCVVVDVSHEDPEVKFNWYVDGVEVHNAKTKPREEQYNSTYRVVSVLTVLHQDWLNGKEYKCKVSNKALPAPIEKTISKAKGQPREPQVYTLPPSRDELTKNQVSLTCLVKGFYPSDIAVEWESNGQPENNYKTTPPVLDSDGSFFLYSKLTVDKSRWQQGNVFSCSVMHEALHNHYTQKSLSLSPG
light: DYQMTQSPSSVSASVGDRVTITCRASQSIGDWLAWYQQKPGKAPKLLIYEASTLASGVPSRFSGSGSGTDFTLTISSVQPEDAATYYCQQGYGRSNVDNIFGGGTKVEVKRTVAAPSVFIFPPSDEQLKSGTASVVCLLNNFYPREAKVQWKVDNALQSGNSQESVTEQDSKDSTYSLSSTLTLSKADYEKHKVYACEVTHQGLSSPVTKSFNRGEC
notes: Same paratopes as v30384 but HomoFc instead of HetFc; also called humanized variant v36675
B3: binds (FCGR2A); binds (FCGR1A).

B4: v31426 (antibody, human IgG1, kappa)
heavy: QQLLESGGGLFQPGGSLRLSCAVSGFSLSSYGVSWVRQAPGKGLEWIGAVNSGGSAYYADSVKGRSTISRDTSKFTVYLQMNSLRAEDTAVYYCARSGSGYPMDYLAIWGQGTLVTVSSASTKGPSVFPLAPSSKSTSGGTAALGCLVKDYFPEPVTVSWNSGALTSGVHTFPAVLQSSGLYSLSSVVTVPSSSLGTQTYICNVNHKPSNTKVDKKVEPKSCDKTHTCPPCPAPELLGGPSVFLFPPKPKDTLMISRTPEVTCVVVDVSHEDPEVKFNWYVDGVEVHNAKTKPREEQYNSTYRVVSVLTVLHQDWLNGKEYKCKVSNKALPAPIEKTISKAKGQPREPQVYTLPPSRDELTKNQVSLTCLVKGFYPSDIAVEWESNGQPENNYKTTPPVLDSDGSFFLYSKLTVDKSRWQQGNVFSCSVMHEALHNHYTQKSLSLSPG
light: DYQMTQSPSSVSASVGDRVTITCRASQSIGDWLAWYQQKPGKAPKLLIYEASTLASGVPSRFSGSGSGTDFTLTISSVQPEDAATYYCQQGYGRSNVDNIFGGGTKVEVKRTVAAPSVFIFPPSDEQLKSGTASVVCLLNNFYPREAKVQWKVDNALQSGNSQESVTEQDSKDSTYSLSSTLTLSKADYEKHKVYACEVTHQGLSSPVTKSFNRGEC
notes: Humanized IgG1/kappa, HomoFc; also called 3gH4L
B4 was tested, and the Kd [1] was 210 nM and the “fold reduced affinity compared to the parental chimera antibody v23924” value [6] was 8 fold.

B5: v35305 (antibody, human IgG1, kappa, V domains shown)
VH: EVQLLESGGGLVQPGGSLRLSCAVSGFSLSLYGVSWVRQAPGKGLEWIGAVNSGGSAYYADSVKGRSTISRDNSKNTVYLQMNSLRAEDTAVYYCARSGSGYPMDYLAIWGQGTLVTVSS
VL: DYQMTQSPSSVSASVGDRVTITCRASQSIWYWLAWYQQKPGKAPKLLIYEASTLASGVPSRFSGSGSGTDFTLTISSVQPEDAATYYCQQGYGRSNVDNIFGGGTKVEVKR
For B5, the “fold improvement of affinity over the parental humanized antibody v30384” value [7] was 12 fold and the Kd [4] was 10.8 nM.

B6: v35348 (antibody, human IgG1, kappa, V domains shown)
VH: EVQLLESGGGLVQPGGSLRLSCAVSGFSLSLYGVSWVRQAPGKGLEWIGAVNSGGSAYYADSFKGRSTISRDNSKNTVYLQMNSLRAEDTAVYYCARSGSGYPMDYHPIWGQGTLVTVSS
VL: DYQMTQSPSSVSASVGDRVTITCRASQSIGDWLAWYQQKPGKAPKLLIYEASTLASGVPSRFSGSGSGTDFTLTISSVQPEDAATYYCQQGYGRWHILNIFGGGTKVEVKR
In the case of B6, the Kd [4] is reported as 2.2 nM and the “fold improvement of affinity over the parental humanized antibody v30384” value [8] is reported as 58 fold.

B7: Palivizumab (anti-RSV) (v22277) (antibody, V domains shown)
VH: QVTLRESGPALVKPTQTLTLTCTFSGFSLSTSGMSVGWIRQPPGKALEWLADIWWDDKKDYNPSLKSRLTISKDTSKNQVVLKVTNMDPADTATYYCARSMITNWYFDVWGAGTTVTVSS
VL: DIQMTQSPSTLSASVGDRVTITCKCQLSVGYMHWYQQKPGKAPKLLIYDTSKLASGVPSRFSGSGSGTEFTLTISSLQPDDFATYYCFQGSGYPFTFGGGTKLEIK
In the case of B7, the Kd (human FRα on cells [9]) is reported as > 50 nM.
